Results from the supplement of paper PMC9732359.
± gives the uncertainty stated by the source.

Assay: protein stability index of a GFP-peptide fusion (yeast GPS) (PSI 1-4); higher = more stable; sorted into four equal gates, so the index is relative within each strain
Outline: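 For each peptide, the protein stability index sums the read frequency in every gate after multiplying it by the gate number. Read frequencies came from plasmids that were PCR-amplified from each gate and Illumina-sequenced, with reads assigned to strains by barcodes. The gates were four equal bins of GFP/Cherry fluorescence ratio applied to mid-log yeast in leucine-free medium carrying a pooled library of tiled 17-residue yeast protein peptides fused downstream of GFP on a Cherry-expressing plasmid.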

Sequence	protein stability index (doa10∆)	protein stability index (pdr5∆)	protein stability index (san1∆)	protein stability index (ubr1∆)
ALPSTHKVTQKKDIKIG [SIR4]	2.36 ± 0.099	2.46 ± 0.071	2.56 ± 0.07	2.77 ± 0.067
ALVFAALEHLKNLSLLA [SRP68]	2.79 ± 0.12	2.75 ± 0.14	3.07 ± 0.065	2.92 ± 0.096
ENEVENINATNTSVLMK [YCS4]	3.3 ± 0.16	3.02 ± 0.12	3.09 ± 0.091	3.36 ± 0.087
CLGIKDEEMLTSCTIPK [GAL11]	2.75 ± 0.075	2.98 ± 0.068	2.68 ± 0.049	3.14 ± 0.059
VMKQVETLVLDEADKMI [PRP28]			3.42 ± 0.13	3.04 ± 0.12
ALLRENQDSVKTYALES [RPN2]	3.35 ± 0.15	2.56 ± 0.16	2.56 ± 0.12	2.94 ± 0.1
RGTIPLLERYIGNLITR [PRP8]	1.52 ± 0.055	1.55 ± 0.045	1.48 ± 0.08	1.6 ± 0.039
RLNTVTRVHQLMLEDAV [MCD1]	3.32 ± 0.21	1.62 ± 0.06	1.69 ± 0.21	2.32 ± 0.095
NDPEYMDTSDDAFVATA [DLS1]	3.1 ± 0.17	3.49 ± 0.16	3.33 ± 0.14	
MRSTSILTEHLGYPPIS [MTW1]	2.9 ± 0.076	2.74 ± 0.065	2.87 ± 0.062	3.06 ± 0.091
VNYNSDMIKCFLPKLNS [NUT1]	2.66 ± 0.13	1.98 ± 0.12	2.06 ± 0.13	1.27 ± 0.066
KVYYFQGGNNELGTAVG [RPL30]	2.67 ± 0.093	2.91 ± 0.086	2.54 ± 0.054	2.89 ± 0.072
MPRAPRTYSKTYSTPKR [RPS9A]	2.3 ± 0.064	2.45 ± 0.069	2.68 ± 0.053	2.62 ± 0.054
KPKKPKGRAYKRLLYTR [RPS30A]	3.13 ± 0.098	2.79 ± 0.11	3.02 ± 0.086	2.99 ± 0.055
YDGDTVTFSPTGRLFQV [PRE5]	2.96 ± 0.089	2.98 ± 0.12	2.94 ± 0.14	3.08 ± 0.061
YNSVRPFGVSTIFGGVD [PRE10]	2.53 ± 0.083	2.71 ± 0.068	2.59 ± 0.14	2.57 ± 0.045
ADIENSTSGDPSEFHCL [SSN2]	3.15 ± 0.18	3.31 ± 0.26	3.21 ± 0.12	3.29 ± 0.12
RLQGIKLLDNIQEYQLC [COR1]	2.46 ± 0.13	2.24 ± 0.092	2.06 ± 0.13	2.34 ± 0.063
DMSKILVDQGFNYSGKD [RET1]	3.36 ± 0.073	3.31 ± 0.065	3.31 ± 0.04	3.49 ± 0.042
MPPKKSWRNITNLSGGE [SMC4]	2.69 ± 0.12	2.85 ± 0.14	2.64 ± 0.12	2.96 ± 0.1

Sequence	protein stability index (doa10∆)	protein stability index (pdr5∆)	protein stability index (san1∆)	protein stability index (ubr1∆)
IQNKKIQEQRVKDKQSK [RPN8]	1.97 ± 0.11	2.78 ± 0.13		2.92 ± 0.13
DALEMQWRYLYDTQLKV [ARP7]	1.75 ± 0.053	1.55 ± 0.046	1.41 ± 0.088	1.53 ± 0.05
QLKNVQLDSYLVNGFSQ [MED2]	2.49 ± 0.062	2.68 ± 0.088	2.24 ± 0.11	2.49 ± 0.042
EYKVITSLQGTYEAIEI [YMR129W/POM152]	3.34 ± 0.2	2.99 ± 0.2	2.89 ± 0.14	3.17 ± 0.13
MLWNLAAKKAMYTLSAQ [ASC1]	2.79 ± 0.069	2.45 ± 0.062	2.06 ± 0.073	2.18 ± 0.077
HQGSGGSVMSASVEIVF [SMC3]	2.05 ± 0.11	2.56 ± 0.081	2.4 ± 0.082	2.26 ± 0.091
IEWCSRCNDNLMRSCFY [YJL039C/NUP192]	3.17 ± 0.089	2.68 ± 0.085	2.9 ± 0.067	2.69 ± 0.083
ELTSFSSQPLEPLSDTE [DSN1]	3.34 ± 0.11	3.12 ± 0.096	3.29 ± 0.065	3.21 ± 0.076
KLLATSTKIIMLLLNDS [SRB8]	1.57 ± 0.065	1.46 ± 0.059	1.48 ± 0.16	1.23 ± 0.071
SVERGRKRAHSLVSTQS [REC8]	3.21 ± 0.082	3.12 ± 0.066	3.26 ± 0.047	3.16 ± 0.042
NLDYLFELIELVTPKSF [NUT1]	2.85 ± 0.057	3 ± 0.082	3.09 ± 0.062	3.31 ± 0.063
KRFKRKDNAKISNNLAL [SRP68]	2.31 ± 0.054	2.59 ± 0.067	2.26 ± 0.079	1.95 ± 0.045
LTNILRMMGCVKKQKSA [FAS2]	1.91 ± 0.068	2.1 ± 0.078	1.81 ± 0.12	1.35 ± 0.066
EFDRRILKKSLMTSHTK [RTT102]	2.94 ± 0.17	2.98 ± 0.092	2.4 ± 0.15	3.29 ± 0.093
VAALKAVGAHSDLLKVL [RPL4A]	3.21 ± 0.093	3.16 ± 0.11	2.71 ± 0.1	2.83 ± 0.059
PNSNVELAGGNASLTIE [SMC1]	2.91 ± 0.091	3.06 ± 0.2	2.95 ± 0.071	3.04 ± 0.27
ETQLKVVTRSKEAFEEE [SMC1]		3.25 ± 0.15		3.39 ± 0.085
DSTVNKSITLKGRNNES [YDL088C/ASM4]	3.28 ± 0.09	3.38 ± 0.084	3.23 ± 0.058	3.21 ± 0.079
GGESMEGPKKCIQVNCL [SNM1]	1.92 ± 0.053	1.95 ± 0.054	2.23 ± 0.1	1.79 ± 0.054
